Results: the supplement of paper PMC11136658

Test system: peptide library, one residue held at a place counted from the Y acceptor
Assay: relative phosphorylation of the sub-library (ratio to the mean residue at this position); higher = residue favoured
Outline: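 Each value expresses phosphorylation relative to the mean randomized residue. Purified recombinant kinases acted for 90 min in 384-well plates on biotinylated Tyr-centred peptide library mixtures, with one residue fixed at one position from −5 to +5, in the presence of 50 μM ATP with γ-32P-ATP. Signals were read by phosphorimaging after capture on streptavidin membranes, then normalized per position to the sum of the 18 randomized residues (16 in the Ser/Thr-free library) and multiplied by that number.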

WEE1, construct: aa215-end, human, sequence (P30291 215-646, looked up): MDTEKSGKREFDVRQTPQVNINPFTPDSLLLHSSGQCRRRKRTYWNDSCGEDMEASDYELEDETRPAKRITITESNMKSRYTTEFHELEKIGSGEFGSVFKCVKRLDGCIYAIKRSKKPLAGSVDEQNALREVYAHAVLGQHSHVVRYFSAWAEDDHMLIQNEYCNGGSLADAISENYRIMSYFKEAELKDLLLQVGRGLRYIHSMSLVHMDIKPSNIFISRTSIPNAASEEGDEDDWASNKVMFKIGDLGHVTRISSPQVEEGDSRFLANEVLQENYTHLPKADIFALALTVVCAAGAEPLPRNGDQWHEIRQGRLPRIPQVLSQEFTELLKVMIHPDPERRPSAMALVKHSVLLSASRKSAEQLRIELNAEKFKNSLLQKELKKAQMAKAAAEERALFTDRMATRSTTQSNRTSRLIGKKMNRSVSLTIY
TNNI3K, construct: aa1-727, human, sequence (Q59H18 1-727, looked up): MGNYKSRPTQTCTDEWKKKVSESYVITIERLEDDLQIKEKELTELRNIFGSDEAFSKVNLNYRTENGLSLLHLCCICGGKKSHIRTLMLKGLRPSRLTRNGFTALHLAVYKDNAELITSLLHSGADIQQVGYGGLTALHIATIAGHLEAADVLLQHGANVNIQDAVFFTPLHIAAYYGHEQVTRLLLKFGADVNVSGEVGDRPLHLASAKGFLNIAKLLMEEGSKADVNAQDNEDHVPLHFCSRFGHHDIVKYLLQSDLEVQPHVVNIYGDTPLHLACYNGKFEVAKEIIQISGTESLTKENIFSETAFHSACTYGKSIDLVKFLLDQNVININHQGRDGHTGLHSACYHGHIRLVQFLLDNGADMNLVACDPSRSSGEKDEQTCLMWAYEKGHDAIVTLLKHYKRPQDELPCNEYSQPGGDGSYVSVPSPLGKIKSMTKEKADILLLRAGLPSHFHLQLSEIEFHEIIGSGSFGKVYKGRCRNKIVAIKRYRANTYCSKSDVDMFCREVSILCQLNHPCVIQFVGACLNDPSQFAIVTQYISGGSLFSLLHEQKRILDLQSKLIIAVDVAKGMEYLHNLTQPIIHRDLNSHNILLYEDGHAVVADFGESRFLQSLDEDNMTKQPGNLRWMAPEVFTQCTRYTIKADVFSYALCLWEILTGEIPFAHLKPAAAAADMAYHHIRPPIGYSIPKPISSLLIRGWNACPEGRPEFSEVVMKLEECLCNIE
TXK, construct: aa239-end, human, sequence (P42681 239-527, looked up): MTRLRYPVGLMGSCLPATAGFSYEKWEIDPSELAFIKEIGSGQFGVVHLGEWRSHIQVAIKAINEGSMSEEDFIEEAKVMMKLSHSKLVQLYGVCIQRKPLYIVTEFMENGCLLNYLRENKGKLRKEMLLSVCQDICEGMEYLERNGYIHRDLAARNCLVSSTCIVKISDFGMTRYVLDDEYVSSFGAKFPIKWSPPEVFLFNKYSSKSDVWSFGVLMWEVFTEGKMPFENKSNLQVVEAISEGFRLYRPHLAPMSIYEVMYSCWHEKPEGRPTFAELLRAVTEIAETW
TYK2, construct: aa871-end, human, sequence (P29597 871-1187, looked up): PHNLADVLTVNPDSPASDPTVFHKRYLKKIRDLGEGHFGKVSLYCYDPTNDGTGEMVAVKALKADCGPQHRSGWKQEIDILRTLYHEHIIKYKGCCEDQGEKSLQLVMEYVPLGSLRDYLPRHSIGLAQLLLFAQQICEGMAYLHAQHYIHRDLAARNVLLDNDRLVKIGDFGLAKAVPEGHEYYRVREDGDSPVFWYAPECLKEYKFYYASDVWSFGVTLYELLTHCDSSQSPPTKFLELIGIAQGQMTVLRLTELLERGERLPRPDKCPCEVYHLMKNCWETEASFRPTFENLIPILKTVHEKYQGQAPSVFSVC

TNNI3K, construct: aa1-727, human (from UniProt Q59H18)
relative phosphorylation
Details	at +1	at +2	at +3	at +4	at +5	at -1	at -2	at -3	at -4	at -5
A fixed	1.74	0.816	0.787	0.992	0.912	1.78	1.09	0.969	1.16	1.17
D fixed	0.328	0.35	0.376	0.377	0.577	1.18	0.589	0.741	0.664	0.668
E fixed	0.277	0.288	0.455	0.35	0.483	1.23	0.717	0.683	0.757	0.538
F fixed	0.587	0.975	1.03	1.01	1.04	0.637	0.998	1.12	1.05	1.09
G fixed	0.605	0.86	0.909	1.12	0.791	1.1	1.34	1.34	1.5	1.35
H fixed	0.57	1.04	1.22	0.997	1.04	0.943	1.18	1.13	1.04	0.979
I fixed	2.26	0.78	0.929	0.945	0.795	0.572	1.03	0.914	0.894	0.958
K fixed	0.896	1.83	1.68	1.24	1.76	0.641	0.992	0.982	1.22	1.22
L fixed	0.79	0.65	1.02	1.11	1.01	0.477	0.805	0.863	0.949	1.06
M fixed	0.914	0.661	0.751	1.1	0.948	0.553	0.738	0.781	0.853	0.787
N fixed	0.62	0.853	0.837	0.74	0.85	1.44	1.02	0.99	0.765	0.77
P fixed	0.555	0.774	0.847	1.21	1.06	1.13	0.928	1.27	1.11	1.18
Q fixed	0.746	0.978	1.13	0.952	0.861	1.24	1.05	0.815	0.925	0.808
R fixed	1.23	2.79	2.39	1.73	1.98	0.687	1.4	1.07	1.25	1.21
V fixed	2.88	0.736	0.835	0.979	0.83	0.701	0.996	1.05	0.947	0.98
W fixed	0.784	1.39	0.892	1.27	1.08	0.579	1.11	1.37	1.27	1.46
pThr fixed	0.215	0.234	0.259	0.263	0.44	0.253	0.593	0.715	0.515	0.622
pTyr fixed	0.365	0.427	0.38	0.365	0.583	0.479	0.832	1.21	0.898	0.776

TXK, construct: aa239-end, human (from UniProt P42681)
relative phosphorylation
Details	at +1	at +2	at +3	at +4	at +5	at -1	at -2	at -3	at -4	at -5
A fixed	1.58	1.14	0.87	0.836	0.784	0.51	1.03	0.998	1.03	1.07
D fixed	2.77	1.02	0.409	0.931	0.726	0.678	2.01	1.85	1.81	1.32
E fixed	2.53	1.15	0.345	0.797	0.692	0.83	1.99	2.25	1.53	1.32
F fixed	0.463	1.14	1.52	1.03	1.26	1	0.539	0.887	0.727	0.858
G fixed	1.28	0.725	0.939	1.18	1.14	0.379	1.35	1.13	1.34	1.27
H fixed	0.614	1.08	1.38	1.07	1.1	0.774	0.798	0.997	0.89	1.04
I fixed	0.981	0.782	0.907	0.835	0.76	3.78	0.515	0.553	0.641	0.782
K fixed	0.175	0.848	0.625	0.986	1.05	0.34	0.693	0.63	0.905	1.04
L fixed	0.444	0.723	1.12	0.881	0.901	2.45	0.627	0.534	0.571	0.722
M fixed	0.788	0.788	1.24	0.968	0.88	1.4	0.602	0.598	0.76	0.723
N fixed	0.539	1.3	1.24	1.05	1.1	0.638	1.24	1.25	1.17	1.06
P fixed	0.254	0.933	0.908	1.63	1.23	0.531	1.74	1.16	1.24	1.25
Q fixed	0.98	1.16	0.937	0.94	1.08	0.514	1.19	1.19	1.19	1.16
R fixed	0.207	1.14	1.01	1.13	1.21	0.27	0.605	0.64	0.858	0.944
S fixed	1.22	1.41	1.07	0.968	0.896	0.575	1.06	0.995	0.895	0.898
T fixed	1.39	1.64	0.808	1.09	1	0.948	0.87	0.928	0.908	0.807
V fixed	1.57	1.01	0.9	0.834	0.783	1.45	0.624	0.571	0.728	0.771
W fixed	0.829	1.06	1.64	0.899	1.3	0.461	0.443	0.77	0.607	0.668
pThr fixed	3.94	2.21	0.407	0.62	0.444	1.85	1.4	1.35	1.14	0.994
pTyr fixed	1.25	1.67	0.517	0.595	0.619	1.72	1.2	1.23	0.945	0.998

TYK2, construct: aa871-end, human (from UniProt P29597)
relative phosphorylation
Details	at +1	at +2	at +3	at +4	at +5	at -1	at -2	at -3	at -4	at -5
A fixed	1.02	0.925	0.773	0.912	0.996	1.11	0.912	0.961	1.1	1.01
D fixed	0.279	0.572	0.536	0.798	0.795	1.27	0.902	0.975	0.881	0.949
E fixed	0.484	0.712	0.473	0.923	0.803	0.995	0.977	0.946	1.27	0.869
F fixed	1.45	1.04	1.17	1.05	1.02	1.24	0.932	1.02	1.18	1.04
G fixed	0.642	0.869	0.853	1.05	1.1	1.1	1.14	1.04	1.24	1.21
H fixed	1.3	0.828	1.07	1.15	1	1.22	1.09	1.04	0.906	0.96
I fixed	1.79	0.873	1.69	0.909	0.957	1.05	1.06	0.9	1.1	0.983
K fixed	0.544	1.29	0.806	1.24	1.1	0.573	0.956	0.959	0.86	0.995
L fixed	1.58	0.927	1.27	0.899	1.02	1.05	1.07	1.01	1.04	1.08
M fixed	1.59	1.02	1.33	1.17	0.983	0.976	0.858	0.983	0.967	0.959
N fixed	0.565	1.22	0.988	0.981	0.979	0.98	1.2	1.2	0.925	1.09
P fixed	0.381	1.04	0.756	0.756	1.22	1.18	0.892	1.17	1.1	1.09
Q fixed	0.973	1.07	0.967	1.15	0.908	0.854	1	0.981	1.02	1.03
R fixed	0.869	1.51	1.19	1.31	1.19	0.64	1.08	0.935	1.01	1.02
S fixed	0.761	1.06	0.951	0.957	1.03	0.98	0.986	0.995	0.743	0.91
T fixed	0.967	1.01	1.02	0.876	1.01	0.922	0.953	0.925	0.73	0.769
V fixed	1.42	0.823	1.16	0.857	0.882	0.949	0.983	0.963	0.786	0.875
W fixed	1.37	1.2	0.996	1.01	1	0.895	1.01	0.999	1.15	1.16
pThr fixed	0.332	0.465	0.257	0.549	0.579	0.969	0.712	0.903	0.863	0.929
pTyr fixed	1.02	0.822	0.517	0.919	0.694	1.51	0.98	1.1	1.22	1.07

WEE1, construct: aa215-end, human (from UniProt P30291)
relative phosphorylation
Details	at +1	at +2	at +3	at +4	at +5	at -1	at -2	at -3	at -4	at -5
A fixed	0.635	0.703	0.557	0.811	0.707	0.72	0.888	0.817	0.926	1.01
D fixed	0.354	0.437	0.425	0.604	0.562	0.619	0.593	0.846	0.849	0.957
E fixed	0.445	0.474	0.464	0.697	0.657	0.467	0.742	0.901	1.22	0.881
F fixed	0.997	1.33	0.969	0.816	0.746	2.25	0.867	1.26	1.13	1.14
G fixed	1.03	0.713	0.776	0.921	0.88	0.693	1.54	1.06	1.24	1.15
H fixed	0.739	0.685	0.93	0.927	1.05	1.04	0.85	0.748	0.809	0.762
I fixed	1	1.04	1.2	0.781	0.881	1.15	0.943	1.24	1.21	1.03
K fixed	1.44	1.9	2.15	2	1.9	0.93	1.04	1.1	0.986	1.1
L fixed	0.815	0.945	0.806	0.752	0.833	1.61	0.866	1.11	1.05	1.15
M fixed	0.892	1.03	0.922	1.11	0.9	1.2	0.741	1.06	0.977	1.01
N fixed	0.952	0.875	0.74	0.762	0.89	1.45	1	0.817	0.747	0.872
P fixed	0.598	0.573	0.636	0.758	0.755	0.753	0.84	1	0.995	0.956
Q fixed	0.913	0.856	0.772	0.98	0.804	0.564	0.733	0.691	0.945	0.88
R fixed	4.18	2.37	3.44	2.25	2.98	0.975	1.54	1.21	1.47	1.15
V fixed	0.819	0.941	0.93	0.751	0.675	1.11	0.924	1.12	0.907	1.02
W fixed	0.904	1.37	0.896	1.23	0.812	1.17	0.897	1.22	1.18	1.37
pThr fixed	0.975	0.775	0.584	0.671	0.815	0.866	1.12	1.3	0.896	1.06
pTyr fixed	1.06	1.05	0.703	0.834	0.882	7.21	1.38	1.76	1.33	1.25
